The values below come from patent US20220251159A1.

No end group written: not given here. *: point of attachment. Myristoyl = CCCCCCCCCCCCCC(=O)*

The Kd is the concentration at which binding is half-saturated.

One assay deals with Full length p53. The assay is described as follows: MST; FIG. 3B. The note with it: chains peptide; modification not given.
For assay [1], the target named is two different p53 missense mutations (A161T and R175H) expressed in U266 and OPM2 multiple myeloma cells. Kind of assay: cell-based or functional assay.

In the assay with Full length p53, RRHSTPHPD [pCAP250] returned a Kd of 30 µM. In turn, Myristoyl-RRHSTPHPD [pCAP 250 (SEQ ID NO: 1)] had an IC50, cell viability (CellTiter-Glo, 72 h) of multiple myeloma cell lines in assay [1] of 1.5 to 3 µM.
